For one assay, the target named is T1, APC2405-AA.
T1 chain: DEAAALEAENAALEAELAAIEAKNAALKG
Briefly: two-hybrid library CCmax.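 Also: natural log of median RNA to DNA barcode read ratio; higher means stronger binding.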 To be noted: mean of both orientations.

A further assay concerns the target T2, APC4264-AA.
T2 chain: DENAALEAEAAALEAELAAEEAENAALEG
The assay can be described thus: two-hybrid library CCmax.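 Also: natural log of median RNA to DNA barcode read ratio; higher means stronger binding.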 To be noted: mean of both orientations.

In another assay the target is T3, 4H2458-AA.
T3 chain: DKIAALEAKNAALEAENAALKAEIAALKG
The assay can be described thus: two-hybrid library CCmax.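 Also: natural log of median RNA to DNA barcode read ratio; higher means stronger binding.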

A further assay addresses T4, APC9319-AA.
T4 chain: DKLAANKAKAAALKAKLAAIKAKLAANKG
The assay can be described thus: two-hybrid library CCmax.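 Also: natural log of median RNA to DNA barcode read ratio; higher means stronger binding.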 To be noted: mean of both orientations.

The target in the next assay is T5, APC1015-AA.
T5 chain: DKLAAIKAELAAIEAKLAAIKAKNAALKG
Briefly: two-hybrid library CCmax.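 Also: natural log of median RNA to DNA barcode read ratio; higher means stronger binding.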 As to conditions: mean of both orientations.

The next assay deals with T6, APC8191-AA.
T6 chain: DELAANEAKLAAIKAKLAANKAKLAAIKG
Briefly: two-hybrid library CCmax.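 Also: natural log of median RNA to DNA barcode read ratio; higher means stronger binding.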 As to conditions: mean of both orientations.

The target in a further assay is T7, 4H716-AA.
T7 chain: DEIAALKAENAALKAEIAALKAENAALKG
The assay can be described thus: two-hybrid library CCmax. To be noted: mean of both orientations.

The target in another assay is T8, APC8910-AA.
T8 chain: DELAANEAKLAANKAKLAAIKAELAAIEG
Briefly: two-hybrid library CCmax. As to conditions: mean of both orientations.

In another assay the target is T9, APC6108-AA.
T9 chain: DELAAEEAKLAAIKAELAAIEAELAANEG
Briefly: two-hybrid library CCmax. As to conditions: mean of both orientations.

The target in a further assay is T10, APC9096-AA.
T10 chain: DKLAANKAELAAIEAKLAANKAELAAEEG
The assay can be described thus: two-hybrid library CCmax. To be noted: mean of both orientations.

The next assay addresses T11, APC232-AA.
T11 chain: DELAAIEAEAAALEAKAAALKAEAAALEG
The assay can be described thus: two-hybrid library CCmax. As to conditions: mean of both orientations.

In the next assay the target is T12, 4H3330-AA.
T12 chain: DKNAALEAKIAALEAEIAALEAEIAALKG
Briefly: two-hybrid library CCmax. To be noted: mean of both orientations.

The next assay addresses T13, APC4011-AA.
T13 chain: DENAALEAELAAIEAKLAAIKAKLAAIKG
Briefly: two-hybrid library CCmax. As to conditions: mean of both orientations.

Another assay has as its target T14, APC7099-AA.
T14 chain: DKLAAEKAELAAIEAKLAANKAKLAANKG
Briefly: two-hybrid library CCmax. To be noted: mean of both orientations.

For another assay, the target named is T15, APC1434-AA.
T15 chain: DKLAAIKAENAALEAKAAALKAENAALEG
Briefly: two-hybrid library CCmax. To be noted: mean of both orientations.

The next assay concerns the target T16, APC5383-AA.
T16 chain: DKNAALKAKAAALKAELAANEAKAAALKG
The assay can be described thus: two-hybrid library CCmax. To be noted: mean of both orientations.

The next assay concerns the target T17, APC2237-AA.
T17 chain: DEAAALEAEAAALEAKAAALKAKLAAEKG
The assay can be described thus: two-hybrid library CCmax. To be noted: mean of both orientations.

Another assay concerns the target T18, APC4436-AA.
T18 chain: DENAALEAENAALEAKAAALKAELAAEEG
The assay can be described thus: two-hybrid library CCmax. To be noted: mean of both orientations.

A further assay concerns the target T19, 4H733-AA.
T19 chain: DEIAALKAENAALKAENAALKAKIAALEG
Briefly: two-hybrid library CCmax. To be noted: mean of both orientations.

Another assay addresses T20, APC3645-AA.
T20 chain: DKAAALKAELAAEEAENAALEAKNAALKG
Briefly: two-hybrid library CCmax. To be noted: mean of both orientations.

The target in a further assay is T21, 4H807-AA.
T21 chain: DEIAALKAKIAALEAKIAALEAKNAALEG
The assay can be described thus: two-hybrid library CCmax. As to conditions: mean of both orientations.

For a further assay, the target named is T22, O15-bP.
T22 chain: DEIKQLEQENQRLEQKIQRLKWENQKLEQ
The assay can be described thus: two-hybrid library CCNG1.

For a further assay, the target named is T23, O8-bP.
T23 chain: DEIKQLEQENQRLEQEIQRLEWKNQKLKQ
The assay can be described thus: two-hybrid library CCNG1.

Another assay deals with T24, O14-bP.
T24 chain: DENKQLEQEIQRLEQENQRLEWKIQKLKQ
Briefly: two-hybrid library CCNG1.

The next assay has as its target T25, O7-bP.
T25 chain: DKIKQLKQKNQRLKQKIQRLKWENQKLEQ
The assay can be described thus: two-hybrid library CCNG1.

Another assay addresses T26, O16-bP.
T26 chain: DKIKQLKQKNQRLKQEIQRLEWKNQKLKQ
Briefly: two-hybrid library CCNG1.

The next assay addresses T27, O6-bP.
T27 chain: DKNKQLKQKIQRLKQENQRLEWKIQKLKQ
The assay can be described thus: two-hybrid library CCNG1.

Another assay addresses T28, O4-bP.
T28 chain: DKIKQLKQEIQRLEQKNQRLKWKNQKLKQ
The assay can be described thus: two-hybrid library CCNG1.

The next assay addresses T29, O9-bP.
T29 chain: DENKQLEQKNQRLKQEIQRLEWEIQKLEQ
Briefly: two-hybrid library CCNG1.

In another assay the target is T30, O2-bP.
T30 chain: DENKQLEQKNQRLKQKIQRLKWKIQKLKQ
The assay can be described thus: two-hybrid library CCNG1.

A further assay deals with T31, O5-bP.
T31 chain: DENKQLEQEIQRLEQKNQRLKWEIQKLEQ
The assay can be described thus: two-hybrid library CCNG1.

Another assay addresses T32, O3-bP.
T32 chain: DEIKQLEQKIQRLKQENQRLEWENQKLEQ
Briefly: two-hybrid library CCNG1.

The target in another assay is T33, APC2811-AA.
T33 chain: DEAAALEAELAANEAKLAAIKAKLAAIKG
The assay can be described thus: two-hybrid library CCmax. To be noted: mean of both orientations.

For the next assay, the target named is T34, APC3323-AA.
T34 chain: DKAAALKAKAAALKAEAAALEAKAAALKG
The assay can be described thus: two-hybrid library CCmax. As to conditions: mean of both orientations.

A further assay concerns the target T35, APC3881-AA.
T35 chain: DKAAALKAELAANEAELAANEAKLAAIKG
The assay can be described thus: two-hybrid library CCmax. To be noted: mean of both orientations.

The next assay concerns the target T36, APC8516-AA.
T36 chain: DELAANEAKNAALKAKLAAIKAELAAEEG
Briefly: two-hybrid library CCmax. To be noted: mean of both orientations.

The target in another assay is T37, APC6088-AA.
T37 chain: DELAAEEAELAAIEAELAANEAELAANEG
Briefly: two-hybrid library CCmax. As to conditions: mean of both orientations.

In the next assay the target is T38, APC2981-AA.
T38 chain: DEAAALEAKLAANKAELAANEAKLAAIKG
Briefly: two-hybrid library CCmax. As to conditions: mean of both orientations.

In a further assay the target is T39, APC4336-AA.
T39 chain: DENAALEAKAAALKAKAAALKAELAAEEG
Briefly: two-hybrid library CCmax. To be noted: mean of both orientations.

A further assay concerns the target T40, APC4100-AA.
T40 chain: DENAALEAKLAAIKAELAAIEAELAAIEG
The assay can be described thus: two-hybrid library CCmax. To be noted: mean of both orientations.

A further assay concerns the target T41, APC2375-AA.
T41 chain: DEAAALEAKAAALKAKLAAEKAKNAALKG
The assay can be described thus: two-hybrid library CCmax. To be noted: mean of both orientations.

The target of a further assay is T42, APC9141-AA.
T42 chain: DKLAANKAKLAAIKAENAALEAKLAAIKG
The assay can be described thus: two-hybrid library CCmax. To be noted: mean of both orientations.

The next assay addresses T43, APC7524-AA.
T43 chain: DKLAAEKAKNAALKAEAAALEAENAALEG
Briefly: two-hybrid library CCmax. To be noted: mean of both orientations.

The target in a further assay is T44, APC2724-AA.
T44 chain: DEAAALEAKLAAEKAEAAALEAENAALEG
The assay can be described thus: two-hybrid library CCmax. As to conditions: mean of both orientations.

For a further assay, the target named is T45, APC542-AA.
T45 chain: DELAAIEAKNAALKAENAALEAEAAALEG
The assay can be described thus: two-hybrid library CCmax. To be noted: mean of both orientations.

The next assay has as its target T46, APC2474-AA.
T46 chain: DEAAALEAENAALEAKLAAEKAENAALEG
The assay can be described thus: two-hybrid library CCmax. As to conditions: mean of both orientations.

The target of the next assay is T47, APC9291-AA.
T47 chain: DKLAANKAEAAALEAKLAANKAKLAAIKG
Briefly: two-hybrid library CCmax. As to conditions: mean of both orientations.

The target in another assay is T48, APC9806-AA.
T48 chain: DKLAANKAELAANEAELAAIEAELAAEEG
Briefly: two-hybrid library CCmax. As to conditions: mean of both orientations.

The next assay concerns the target T49, APC8401-AA.
T49 chain: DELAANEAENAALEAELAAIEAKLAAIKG
The assay can be described thus: two-hybrid library CCmax. To be noted: mean of both orientations.

For the next assay, the target named is T50, APC2556-AA.
T50 chain: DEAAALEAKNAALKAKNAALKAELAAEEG
The assay can be described thus: two-hybrid library CCmax. As to conditions: mean of both orientations.

A further assay deals with T51, APC5009-AA.
T51 chain: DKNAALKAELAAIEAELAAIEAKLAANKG
The assay can be described thus: two-hybrid library CCmax. To be noted: mean of both orientations.

A further assay deals with T52, APC3354-AA.
T52 chain: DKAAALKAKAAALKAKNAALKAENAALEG
Briefly: two-hybrid library CCmax. To be noted: mean of both orientations.

The next assay addresses T53, APC9182-AA.
T53 chain: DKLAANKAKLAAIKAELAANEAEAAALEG
Briefly: two-hybrid library CCmax. As to conditions: mean of both orientations.

The next assay addresses T54, APC5531-AA.
T54 chain: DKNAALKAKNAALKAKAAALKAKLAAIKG
Briefly: two-hybrid library CCmax. To be noted: mean of both orientations.

In a further assay the target is T55, APC3265-AA.
T55 chain: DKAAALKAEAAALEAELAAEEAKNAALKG
The assay can be described thus: two-hybrid library CCmax.

The next assay deals with T56, APC2543-AA.
T56 chain: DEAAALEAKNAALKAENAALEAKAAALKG
Briefly: two-hybrid library CCmax. To be noted: mean of both orientations.

In a further assay the target is T57, APC2257-AA.
T57 chain: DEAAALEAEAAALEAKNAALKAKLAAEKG
Briefly: two-hybrid library CCmax.

DKIAALEAKNAALEAENAALKAEIAALKG [4H2458-AA]: the interaction score with APC2405-AA is -1.59; with APC4264-AA it was -1.79; with 4H2458-AA, 2.24; with APC9319-AA, -2.07; with APC1015-AA, -1.95; with APC8191-AA, -2.11. The interaction score was -0.991 with 4H716-AA; -1.49 with APC8910-AA; -1.71 with APC6108-AA; -1.34 with APC9096-AA; -1.85 in the assay with APC232-AA; -1.38 with 4H3330-AA. Moreover, the interaction score with APC4011-AA is -0.914; with APC7099-AA it was -1.31; with APC1434-AA it was -1.22; in the assay with APC5383-AA, -1.7; with APC2237-AA it was -1.44; with APC4436-AA it was -1.67. The interaction score with 4H733-AA is -1.61; with APC3645-AA it was -1.47; with 4H807-AA, -1.17.

Take DENKQLEQEIQRLEQENQRLEWKIQKLKQ [O14-bP]: the interaction score is -0.0315 with O15-bP; -2.05 with O8-bP; -1.46 in the assay with O14-bP; 0.0513 with O7-bP; 1.73 in the assay with O16-bP; 1.82 in the assay with O6-bP. Besides, the interaction score with O4-bP is -1.04; with O9-bP, -0.215; in the assay with O2-bP it was -0.77; in the assay with O5-bP, 1.11; in the assay with O3-bP, -0.787.

Consider DEAAALEAEAAALEAKNAALKAKLAAEKG [APC2257-AA], for which the interaction score with APC2811-AA was 1.49; with APC3323-AA, -1.58; in the assay with APC3881-AA it was -1.31; with APC8516-AA, -1.64; with APC6088-AA, -1.24; with APC2981-AA, -1.18. Moreover, the interaction score was -1.71 in the assay with APC4336-AA; -1.56 with APC4100-AA; -1.42 in the assay with APC2375-AA; -1.37 with APC9141-AA; -1.59 with APC7524-AA; -1.47 in the assay with APC2724-AA. Besides, the interaction score is -1.54 with APC542-AA; -1.46 with APC2474-AA; -1.61 with APC9291-AA; -1.79 with APC9806-AA; -1.32 with APC8401-AA; -1.99 with APC2556-AA. The interaction score with APC5009-AA is -1.07; in the assay with APC3354-AA, -1.45; in the assay with APC9182-AA it was -1.86; in the assay with APC5531-AA it was -1.97; with APC3265-AA it was -1.43; with APC2543-AA, -1.02. Also, the interaction score in the assay with APC2257-AA is -1.12.

Source of the values: PMC10397247.
